Among the data in patent US20250179180A1 are Kd values, retold here.

For the test, the target named is human CD3 (human) (UniProt P07766).
Sequence of human CD3 (human) (P07766 23-207 limits assumed, chain 1 of 2): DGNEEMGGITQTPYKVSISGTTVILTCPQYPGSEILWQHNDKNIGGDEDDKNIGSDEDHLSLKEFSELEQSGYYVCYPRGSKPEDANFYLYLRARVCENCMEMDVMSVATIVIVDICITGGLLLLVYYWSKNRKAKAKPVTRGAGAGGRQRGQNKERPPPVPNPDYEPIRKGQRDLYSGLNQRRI
Sequence of human CD3 (human) (chain, as listed by the source limits assumed, chain 2 of 2): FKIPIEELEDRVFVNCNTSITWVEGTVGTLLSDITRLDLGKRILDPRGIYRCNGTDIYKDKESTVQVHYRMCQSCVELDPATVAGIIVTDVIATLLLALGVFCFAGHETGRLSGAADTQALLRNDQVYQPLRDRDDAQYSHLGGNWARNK

In turn, TNB-384B (bispecific antibody) showed a Kd of 30 nM.

As usually defined, the Kd is a measure of binding affinity in units of concentration. Higher therefore signals a looser complex.
